How the values were obtained:
[1] = biological target: T1, 11R-CDCA8261-280
T1 chain: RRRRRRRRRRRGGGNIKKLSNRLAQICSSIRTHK

[2] = biological target: CDCA8delta1
[3] = biological target: CDCA8delta10
[4] = biological target: T2, CDCA8delta11
T2 chain: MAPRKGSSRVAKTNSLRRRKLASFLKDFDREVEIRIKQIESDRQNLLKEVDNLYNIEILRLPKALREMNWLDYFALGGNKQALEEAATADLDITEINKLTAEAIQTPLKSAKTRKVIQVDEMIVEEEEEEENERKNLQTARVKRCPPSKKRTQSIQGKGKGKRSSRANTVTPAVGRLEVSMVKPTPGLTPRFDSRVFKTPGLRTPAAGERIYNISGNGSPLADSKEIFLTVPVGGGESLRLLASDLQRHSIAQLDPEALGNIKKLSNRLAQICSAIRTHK

[5] = biological target: T3, CDCA8delta12
T3 chain: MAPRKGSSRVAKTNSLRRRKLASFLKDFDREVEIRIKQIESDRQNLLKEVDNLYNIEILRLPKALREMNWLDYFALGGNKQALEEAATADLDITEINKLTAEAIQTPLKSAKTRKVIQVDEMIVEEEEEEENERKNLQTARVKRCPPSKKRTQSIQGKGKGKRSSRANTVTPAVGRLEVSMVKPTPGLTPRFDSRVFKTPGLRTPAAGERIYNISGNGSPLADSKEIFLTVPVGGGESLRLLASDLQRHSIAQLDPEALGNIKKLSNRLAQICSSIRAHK

[6] = biological target: T4, CDCA8delta13
T4 chain: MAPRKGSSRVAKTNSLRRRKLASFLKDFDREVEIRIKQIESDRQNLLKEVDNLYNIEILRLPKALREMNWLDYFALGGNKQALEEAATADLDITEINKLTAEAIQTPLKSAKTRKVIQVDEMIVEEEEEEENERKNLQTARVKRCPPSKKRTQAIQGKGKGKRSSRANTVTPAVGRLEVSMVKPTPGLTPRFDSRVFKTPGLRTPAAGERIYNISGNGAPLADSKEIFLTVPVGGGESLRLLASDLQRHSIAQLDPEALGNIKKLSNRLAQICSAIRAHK

[7] = biological target: CDCA8delta2
[8] = biological target: CDCA8delta3
[9] = biological target: CDCA8delta4
[10] = biological target: CDCA8delta5
[11] = biological target: CDCA8delta6
[12] = biological target: CDCA8delta7
[13] = biological target: T5, CDCA8delta8
T5 chain: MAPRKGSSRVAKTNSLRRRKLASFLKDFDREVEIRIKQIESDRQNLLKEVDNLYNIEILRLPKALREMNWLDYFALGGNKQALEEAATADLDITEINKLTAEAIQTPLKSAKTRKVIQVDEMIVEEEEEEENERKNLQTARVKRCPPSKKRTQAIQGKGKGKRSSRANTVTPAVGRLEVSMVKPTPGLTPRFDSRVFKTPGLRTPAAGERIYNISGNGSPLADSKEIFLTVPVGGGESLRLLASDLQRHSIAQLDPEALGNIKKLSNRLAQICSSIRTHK

[14] = biological target: T6, CDCA8delta9
T6 chain: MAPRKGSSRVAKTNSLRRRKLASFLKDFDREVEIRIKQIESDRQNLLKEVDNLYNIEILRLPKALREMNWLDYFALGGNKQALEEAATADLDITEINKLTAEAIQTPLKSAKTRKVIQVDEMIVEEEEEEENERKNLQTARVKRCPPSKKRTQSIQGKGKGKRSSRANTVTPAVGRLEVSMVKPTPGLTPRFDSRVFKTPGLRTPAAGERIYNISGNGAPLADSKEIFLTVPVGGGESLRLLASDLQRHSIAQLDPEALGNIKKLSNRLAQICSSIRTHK

[15] = biological target: T7, full-length recombinant CDCA8 protein (wild-type, N-terminal His tag)
T7 chain: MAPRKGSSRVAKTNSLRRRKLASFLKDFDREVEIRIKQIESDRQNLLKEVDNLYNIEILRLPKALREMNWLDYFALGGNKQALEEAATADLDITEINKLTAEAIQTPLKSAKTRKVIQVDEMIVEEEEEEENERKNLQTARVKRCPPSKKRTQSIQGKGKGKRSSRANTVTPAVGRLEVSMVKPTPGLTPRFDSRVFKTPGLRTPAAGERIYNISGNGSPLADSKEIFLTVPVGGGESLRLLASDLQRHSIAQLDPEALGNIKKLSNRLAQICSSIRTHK

B1: recombinant AURKB (Catalog No. 14-489; upstate) (protein)
chain: MAQKENSYPWPYGRQTAPSGLSTLPQRVLRKEPVTPSALVLMSRSNVQPTAAPGQKVMENSSGTPDILTRHFTIDDFEIGRPLGKGKFGNVYLAREKKSHFIVALKVLFKSQIEKEGVEHQLRREIEIQAHLHHPNILRLYNYFYDRRRIYLILEYAPRGELYKELQKSCTFDEQRTATIMEELADALMYCHGKKVIHRDIKPENLLLGLKGELKIADFGWSVHAPSLRRKTMCGTLDYLPPEMIEGRMHNEKVDLWCIGVLCYELLVGNPPFESASHNETYRRIVKVDLKFPASVPMGAQDLISKLLRHNPSERLPLAQVSAHPWVRANSRRVLPPSALQSVA
phosphorylation level of rhCDCA8 by rhAURKB in in vitro kinase assay [1]: the phosphorylation level of rhCDCA8 was significantly suppressed by the treatment with 11R-CDCA8261-280 peptides ... compared to its scramble peptides
phosphorylation level in in vitro kinase assay [2]: represented the same levels of phosphorylation compared to wild-type CDCA8
phosphorylation level in in vitro kinase assay [3]: showed the same levels of phosphorylation compared with wild-type
phosphorylation level in in vitro kinase assay [4]: revealed the reduction of phosphorylation levels in four mutated-constructs
phosphorylation level in in vitro kinase assay [5]: revealed the reduction of phosphorylation levels in four mutated-constructs
phosphorylation level in in vitro kinase assay [6]: complete disappearance of CDCA8 phosphorylation by AURKB
phosphorylation level in in vitro kinase assay [7]: a reduction of phosphorylation levels was detected in three mutated constructs (CDCA8delta2, -delta5, and -delta6), as compared to a wild-type
phosphorylation level in in vitro kinase assay [8]: represented the same levels of phosphorylation compared to wild-type CDCA8
phosphorylation level in in vitro kinase assay [9]: represented the same levels of phosphorylation compared to wild-type CDCA8
phosphorylation level in in vitro kinase assay [10]: a reduction of phosphorylation levels was detected in three mutated constructs (CDCA8delta2, -delta5, and -delta6), as compared to a wild-type
phosphorylation level in in vitro kinase assay [11]: a reduction of phosphorylation levels was detected in three mutated constructs (CDCA8delta2, -delta5, and -delta6), as compared to a wild-type
phosphorylation level in in vitro kinase assay [12]: showed the same levels of phosphorylation compared with wild-type
phosphorylation level in in vitro kinase assay [13]: revealed the reduction of phosphorylation levels in four mutated-constructs
phosphorylation level in in vitro kinase assay [14]: revealed the reduction of phosphorylation levels in four mutated-constructs
in vitro phosphorylation ([gamma-32P] ATP kinase assay) [15]: CDCA8 was phosphorylated in an AURKB-dose-dependent manner
